Laboratory results from PMC10221487.

Key:
[1] = target: ZV54^CHO (CHO cell-derived ZV54 mAb); experiment: SPR; conditions: remark: other sources report otherwise
[2] = target: ZV54^ΔXF (ZV54 mAb expressed in glycoengineered ΔXF N. benthamiana plants); experiment: SPR; conditions: remark: other sources report otherwise

Kd [1]: 662 nM | Kd [2]: 1890 nM
B1: recombinant human FcγRIIA ectodomain, P12318 34-217 (receptor)
chain: QAAAPPKAVLKLEPPWINVLQEDSVTLTCQGARSPESDSIQWFHNGNLIPTHTQPSYRFKANNNDSGEYTCQTGQTSLSDPVHLTVLSEWLVLQTPHLEFQEGETIMLRCHSWKDKPLVKVTFFQNGKSQKFSHLDPTFSIPQANHSHSGDYHCTGNIGYTLFSSKPVTITVQVPSMGSSSPMG
modifications: not checked
